{"source": "paper PMC6582153", "assay_in_all_cases": "MST; 2-hep HMM with C-terminal eGFP (fluorescence followed) titrated with increasing concentrations of unlabeled proximal S2; 23 °C; 10 mM imidazole pH 7.5, 100 mM KCl, 1 mM EDTA, 2 mM MgCl2, 1 mM DTT, 500 mM ADP, 0.05% Tween; MST power 60; isotherms fitted with the Hill equation", "key": {"[1]": {"molecular_target": "D382Y recombinant human β-cardiac myosin 2-hep HMM (UniProt P08590)"}, "[2]": {"molecular_target": "R719W recombinant human β-cardiac myosin 2-hep HMM (UniProt P08590)"}, "[3]": {"molecular_target": "WT recombinant human β-cardiac myosin 2-hep HMM (UniProt P08590)"}}, "data": [{"substance": "proximal S2 (amino acids 839–968) of human β-cardiac myosin (from UniProt P12883 839-968) (domain or fragment)", "values": [{"measurement": "Kd", "setting": "[1]", "value": 45, "unit": "µM"}, {"measurement": "Kd", "setting": "[2]", "value": 58, "unit": "µM"}, {"measurement": "Kd", "setting": "[3]", "value": 37, "unit": "µM"}]}]}
